Measured values: paper PMC3520923, “Expression, Characterization, and Cellular Localization of Knowpains, Papain-Like Cysteine Proteases of the Plasmodium knowlesi Malaria Parasite” (PLoS ONE, 2012)

Columns and labels:
[1] = tested on: Cc1cc(=O)oc2cc(NC(=O)[C@H](CCCNC(=N)N)NC(=O)[C@H](CC(C)C)NC(=O)OCc3ccccc3)ccc12; assay: purified protein; conditions: 100 mM sodium acetate pH 5.5, 10 mM DTT, 37°C
[2] = tested on: Cc1cc(=O)oc2cc(NC(=O)[C@H](CCCNC(=N)N)NC(=O)[C@H](Cc3ccccc3)NC(=O)OCc3ccccc3)ccc12; assay: purified protein; conditions: 100 mM sodium acetate pH 5.5, 10 mM DTT, 37°C
Excerpt: (§1) fluorogenic AMC release, initial rates, ORIGIN fit on knowpain-4 (KP4)

[3] = tested on: Cc1cc(=O)oc2cc(NC(=O)[C@H](CCCNC(=N)N)NC(=O)[C@H](CCCNC(=N)N)NC(=O)OCc3ccccc3)ccc12; assay: purified protein; conditions: 100 mM sodium acetate pH 5.5, 10 mM DTT, 37°C
Excerpt: as §1

knowpain-4 (KP4) = molecular target: T1, knowpain-4 (KP4) (Plasmodium knowlesi, UniProt A0A384LCH8); assay: inhibition of Z-LR-AMC hydrolysis, fluorescence; type: biochemical; conditions: 10 µM inhibitor, 10 nM enzyme, 5 min preincubation, sodium acetate pH 5.5, 25 µM Z-LR-AMC; covalent
T1 construct: gene PKNH_0912800
T1 sequence (A0A384LCH8 entry or part of it): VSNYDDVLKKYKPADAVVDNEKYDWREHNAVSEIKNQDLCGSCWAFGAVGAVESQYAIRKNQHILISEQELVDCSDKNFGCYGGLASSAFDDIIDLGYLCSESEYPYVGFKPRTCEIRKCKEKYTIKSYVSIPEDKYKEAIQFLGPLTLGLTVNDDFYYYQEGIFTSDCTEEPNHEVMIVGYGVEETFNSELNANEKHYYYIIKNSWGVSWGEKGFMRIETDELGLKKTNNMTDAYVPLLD

knowpain-3 (KP3) = molecular target: T2, knowpain-3 (KP3) (Plasmodium knowlesi, UniProt A0A384KX24); assay: inhibition of Z-LR-AMC hydrolysis, fluorescence; type: biochemical; conditions: 10 µM inhibitor, 100 nM enzyme, 5 min preincubation, sodium acetate pH 5.5, 25 µM Z-LR-AMC; covalent
T2 construct: gene PKNH_0912900
T2 sequence (A0A384KX24 entry or part of it): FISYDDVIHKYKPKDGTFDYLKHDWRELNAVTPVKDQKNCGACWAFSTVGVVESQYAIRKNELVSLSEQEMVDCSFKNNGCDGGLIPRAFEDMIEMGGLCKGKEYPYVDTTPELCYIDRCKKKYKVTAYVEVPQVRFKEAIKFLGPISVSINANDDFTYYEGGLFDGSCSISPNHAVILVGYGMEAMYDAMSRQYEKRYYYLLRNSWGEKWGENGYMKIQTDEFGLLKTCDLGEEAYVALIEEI

Row | Compound | Km [1] [µM] | kcat [1] [s⁻¹] | kcat/Km [1] [M⁻¹ s⁻¹] | Km [2] [µM] | kcat [2] [s⁻¹] | kcat/Km [2] [M⁻¹ s⁻¹] | Km [3] [µM] | kcat [3] [s⁻¹] | kcat/Km [3] [M⁻¹ s⁻¹] | % of control activity at 10 μM (knowpain-4 (KP4)) | % of control activity at 10 μM (knowpain-3 (KP3))
1 | knowpain-2 (KP2) (Plasmodium knowlesi strain H) | 14.26 ± 0.27 | 0.0011 | 75.6 |  |  |  |  |  |  |  | 
2 | knowpain-3 (KP3) (Plasmodium knowlesi strain H) | 30.56 ± 1.23 | 0.0156 | 511 |  |  |  |  |  |  |  | 
3 | knowpain-4 (KP4) (Plasmodium knowlesi strain H) | 4.20 ± 0.25 | 0.0129 | 3070 | 4.20 ± 0.19 | 0.0062 | 1470 | 2.13 ± 0.17 | 0.0435 | 20500 |  | 
4 | CC(C)C[C@H](NC(=O)[C@@H]1O[C@H]1C(=O)O)C(=O)NCCCCN=C(N)N [E64, trans-epoxysuccinyl-L-leucylamido-(4-guanidino) butane] |  |  |  |  |  |  |  |  |  | blocked by the cysteine protease inhibitors E64 and leupeptin | blocked by the cysteine protease inhibitors E64 and leupeptin
